Test results published in patent publication US20220009986A1 (AMBRX, published 2022).
Where “and” joins values, the source holds several entries; their conditions need not be identical. Identical values can stand only once. Like-named read-outs stand apart in the source and are kept apart here.

B1: IL-10 wild type (mature wild type human IL-10) (ligand)
chain: SPGQGTQSENSCTHFPGNLPNMLRDLRDAFSRVKTFFQMKDQLDNLLLKESLLEDFKGYLGCQALSEMIQFYLEEVMPQAENQDPDIKAHVNSLGENLKTLRLRLRRCHRFLPCENKSKAVEQVKNAFNKLQEKGIYKAMSEFDIFINYIEAYMTMKIRN
B2: 10K PEG-hIL-10 wt (ligand)
chain: SPGQGTQSENSCTHFPGNLPNMLRDLRDAFSRVKTFFQMKDQLDNLLLKESLLEDFKGYLGCQALSEMIQFYLEEVMPQAENQDPDIKAHVNSLGENLKTLRLRLRRCHRFLPCENKSKAVEQVKNAFNKLQEKGIYKAMSEFDIFINYIEAYMTMKIRN
modifications: N-terminal PEGylation with 10K PEG
B3: 5K PEG-hIL-10 wt (ligand)
chain: SPGQGTQSENSCTHFPGNLPNMLRDLRDAFSRVKTFFQMKDQLDNLLLKESLLEDFKGYLGCQALSEMIQFYLEEVMPQAENQDPDIKAHVNSLGENLKTLRLRLRRCHRFLPCENKSKAVEQVKNAFNKLQEKGIYKAMSEFDIFINYIEAYMTMKIRN
modifications: N-terminal PEGylation with 5K PEG

Legend:
Experiment in all cases: cell-based or functional assay
[1] = molecular target: T1, endogenous IL-10 receptors of MC/9 cells (mouse mast cell line) (mouse, UniProt Q61727 17-575)
T1 sequence (looked up): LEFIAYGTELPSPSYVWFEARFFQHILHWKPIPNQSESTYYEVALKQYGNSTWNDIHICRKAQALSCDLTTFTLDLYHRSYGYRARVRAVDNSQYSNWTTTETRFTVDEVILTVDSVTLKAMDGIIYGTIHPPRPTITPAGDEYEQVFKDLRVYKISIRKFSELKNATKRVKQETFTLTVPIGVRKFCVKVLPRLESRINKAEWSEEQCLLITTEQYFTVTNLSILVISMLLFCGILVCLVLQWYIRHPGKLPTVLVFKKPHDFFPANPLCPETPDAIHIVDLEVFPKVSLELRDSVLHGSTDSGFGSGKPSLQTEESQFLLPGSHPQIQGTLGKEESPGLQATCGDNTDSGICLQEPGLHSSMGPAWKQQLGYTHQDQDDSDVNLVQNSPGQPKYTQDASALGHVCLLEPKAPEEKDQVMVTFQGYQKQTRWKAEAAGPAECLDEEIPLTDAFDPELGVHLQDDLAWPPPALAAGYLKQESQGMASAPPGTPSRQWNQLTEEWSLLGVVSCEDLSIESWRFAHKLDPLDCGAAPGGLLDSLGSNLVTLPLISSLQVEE

[2] = molecular target: T1, endogenous IL-10 receptors of MC/9 …; remark: listed apart in the source
[3] = molecular target: T1, endogenous IL-10 receptors of MC/9 …; remark: listed apart in the source
[4] = molecular target: T1, endogenous IL-10 receptors of MC/9 …; remark: listed apart in the source

| EC50 (ng/ml), MC/9 proliferation assay [1] | EC50 (ng/ml), MC/9 proliferation assay [2] [ng/mL] | EC50 (ng/ml), MC/9 proliferation assay [3] [ng/mL] | EC50 (ng/ml), MC/9 proliferation assay [4] [ng/mL] | Binder |
| --- | --- | --- | --- | --- |
| 0.303 ng/mL and 0.105 ng/mL | 1 | 0.42 | 0.14 | B1 |
|  |  |  | 21.8 | B2 |
|  |  |  | 4.76 | B3 |
